Molecular target: His-tagged recombinant full-length HCV NS3 protein (aa 1027 to aa 1657 of the HCV polyprotein, 1b genotype), purified from E. coli (hepatitis C virus, 1b genotype)
Assay: cell-based or functional assay

B1: Human recombinant anti-NS3 Fab (HFab-aNS3) (Fab, V domains shown)
VH: LEESGGGLVKPGGSLRLSCVASGLTFSRYNMQWVRQAPGKGLEWVASISTSGVYIYYADSVTGRFTISRDNSKNSLYLQMNSLGAEDTAVYYCARDLTFLCGGDCLQPWGQG
VL: AELTQSPSSLSASVGDRVTITCRASQGISRYLAWFQQRPGKAPKSLIYAASHLQSGVPSRFSASGSGTEFTLSISSLQPEDFATYYCQQYDTYPYTFGQGTKLEIKR
inhibition of NTPase activity: 15% | inhibition of helicase activity: 54%

From US7314919
